Experimental data from the supplement of paper PMC10567573.

B1: VAMP4 (parent)
chain: FLRGPSGPRFGPRNDKIKHVQNQV

Variants of: B1
Test: protein stability index of a GFP-peptide fusion (GPS, HEK-293T) (PSI 1-6); higher = more stable
Details: c terminus: a fixed tail appended
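Note: lentivirally expressed fusions sorted by FACS into six bins by GFP to DsRed ratio, PSI derived from sequencing read proportions per bin multiplied by bin number.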

For FLRGPSGKRFGPRNDKIKHVQNQV, which protein stability index is on record?
The protein stability index was 2.07.

With FLRGPSGTRFGPRNDKIKHVQNQV as the variant, how does the protein stability index read?
The protein stability index was 2.71.

With FLRGPSGQRFGPRNDKIKHVQNQV as the variant, how does the protein stability index read?
Its protein stability index is 1.96.

Which protein stability index does the source give for FLRGPSGRRFGPRNDKIKHVQNQV here?
The protein stability index was 2.35.

For FLRGPSGNRFGPRNDKIKHVQNQV, which protein stability index is on record?
Its protein stability index is 2.63.

For FLRGPSGVRFGPRNDKIKHVQNQV, which protein stability index is on record?
Its protein stability index is 2.54.

Which protein stability index does the source give for FLRGPSGYRFGPRNDKIKHVQNQV here?
Its protein stability index is 2.47.

For FLRGPSGFRFGPRNDKIKHVQNQV, which protein stability index is on record?
Its protein stability index is 2.28.

For FLRGPSGPFFGPRNDKIKHVQNQV, which protein stability index is on record?
Its protein stability index is 1.9.

With FLRGPSGPSFGPRNDKIKHVQNQV as the variant, how does the protein stability index read?
Its protein stability index is 2.69.

For FLRGPSGPWFGPRNDKIKHVQNQV, which protein stability index is on record?
The protein stability index was 2.93.

Which protein stability index does the source give for FLRGPSGPYFGPRNDKIKHVQNQV here?
The protein stability index was 2.04.

Which protein stability index does the source give for FLRGPSGPPFGPRNDKIKHVQNQV here?
The protein stability index was 2.49.

Which protein stability index does the source give for FLRGPSGPQFGPRNDKIKHVQNQV here?
The protein stability index was 2.93.

Which protein stability index does the source give for FLRGPSGPHFGPRNDKIKHVQNQV here?
The protein stability index was 2.28.

With FLRGPSGPEFGPRNDKIKHVQNQV as the variant, how does the protein stability index read?
The protein stability index was 3.

For FLRGPSGPVFGPRNDKIKHVQNQV, which protein stability index is on record?
Its protein stability index is 2.18.

For FLRGPSGPTFGPRNDKIKHVQNQV, which protein stability index is on record?
Its protein stability index is 2.75.

For FLRGPSGPNFGPRNDKIKHVQNQV, which protein stability index is on record?
The protein stability index was 3.01.

Which protein stability index does the source give for FLRGPSGPDFGPRNDKIKHVQNQV here?
The protein stability index was 2.91.

Which protein stability index does the source give for FLRGPSGPMFGPRNDKIKHVQNQV here?
The protein stability index was 2.46.

Which protein stability index does the source give for FLRGPSGPGFGPRNDKIKHVQNQV here?
Its protein stability index is 2.49.

With FLRGPSGPIFGPRNDKIKHVQNQV as the variant, how does the protein stability index read?
Its protein stability index is 2.17.

Which protein stability index does the source give for FLRGPSGPCFGPRNDKIKHVQNQV here?
Its protein stability index is 1.76.

With FLRGPSGPKFGPRNDKIKHVQNQV as the variant, how does the protein stability index read?
Its protein stability index is 3.87.

Which protein stability index does the source give for FLRGPSGPLFGPRNDKIKHVQNQV here?
The protein stability index was 2.06.

For FLRGPSGPAFGPRNDKIKHVQNQV, which protein stability index is on record?
The protein stability index was 2.

Which protein stability index does the source give for FLRGPPGPRFGPRNDKIKHVQNQV here?
The protein stability index was 2.79.

Which protein stability index does the source give for FLRGPHGPRFGPRNDKIKHVQNQV here?
Its protein stability index is 2.45.

For FLRGPLGPRFGPRNDKIKHVQNQV, which protein stability index is on record?
Its protein stability index is 1.54.

For FLRGPTGPRFGPRNDKIKHVQNQV, which protein stability index is on record?
The protein stability index was 2.77.

With FLRGPGGPRFGPRNDKIKHVQNQV as the variant, how does the protein stability index read?
Its protein stability index is 2.49.

With FLRGPNGPRFGPRNDKIKHVQNQV as the variant, how does the protein stability index read?
The protein stability index was 2.43.

With FLRGPEGPRFGPRNDKIKHVQNQV as the variant, how does the protein stability index read?
The protein stability index was 3.94.

Which protein stability index does the source give for FLRGPKGPRFGPRNDKIKHVQNQV here?
The protein stability index was 2.65.

With FLRGPMGPRFGPRNDKIKHVQNQV as the variant, how does the protein stability index read?
The protein stability index was 2.86.

With FLRGPVGPRFGPRNDKIKHVQNQV as the variant, how does the protein stability index read?
The protein stability index was 2.12.

With FLRGPFGPRFGPRNDKIKHVQNQV as the variant, how does the protein stability index read?
Its protein stability index is 2.64.

For FLRGPCGPRFGPRNDKIKHVQNQV, which protein stability index is on record?
The protein stability index was 2.03.

Which protein stability index does the source give for FLRGPQGPRFGPRNDKIKHVQNQV here?
Its protein stability index is 2.56.

Which protein stability index does the source give for FLRGPDGPRFGPRNDKIKHVQNQV here?
Its protein stability index is 2.95.

Which protein stability index does the source give for FLRGPRGPRFGPRNDKIKHVQNQV here?
Its protein stability index is 2.92.

For FLRGPYGPRFGPRNDKIKHVQNQV, which protein stability index is on record?
Its protein stability index is 2.11.

Which protein stability index does the source give for FLRGPAGPRFGPRNDKIKHVQNQV here?
The protein stability index was 2.76.

With FLRGPIGPRFGPRNDKIKHVQNQV as the variant, how does the protein stability index read?
The protein stability index was 1.97.

Which protein stability index does the source give for FLRGPWGPRFGPRNDKIKHVQNQV here?
Its protein stability index is 1.29.

Which protein stability index does the source give for RLRGPSGPRFGPRNDKIKHVQNQV here?
The protein stability index was 3.35.

For SLRGPSGPRFGPRNDKIKHVQNQV, which protein stability index is on record?
The protein stability index was 3.71.

With PLRGPSGPRFGPRNDKIKHVQNQV as the variant, how does the protein stability index read?
The protein stability index was 4.07.

Which protein stability index does the source give for TLRGPSGPRFGPRNDKIKHVQNQV here?
The protein stability index was 3.79.

With NLRGPSGPRFGPRNDKIKHVQNQV as the variant, how does the protein stability index read?
The protein stability index was 3.44.

With YLRGPSGPRFGPRNDKIKHVQNQV as the variant, how does the protein stability index read?
The protein stability index was 2.52.

For VLRGPSGPRFGPRNDKIKHVQNQV, which protein stability index is on record?
The protein stability index was 3.43.

With QLRGPSGPRFGPRNDKIKHVQNQV as the variant, how does the protein stability index read?
The protein stability index was 3.68.

With MLRGPSGPRFGPRNDKIKHVQNQV as the variant, how does the protein stability index read?
Its protein stability index is 3.27.

Which protein stability index does the source give for WLRGPSGPRFGPRNDKIKHVQNQV here?
Its protein stability index is 2.61.

Which protein stability index does the source give for FLRGPSGPRHGPRNDKIKHVQNQV here?
Its protein stability index is 3.07.

For FLRGPSGPRMGPRNDKIKHVQNQV, which protein stability index is on record?
The protein stability index was 3.24.

Which protein stability index does the source give for FLRGPSGPRCGPRNDKIKHVQNQV here?
The protein stability index was 2.53.

For FLRGPSGPRSGPRNDKIKHVQNQV, which protein stability index is on record?
Its protein stability index is 2.86.

With FLRGPSGPRIGPRNDKIKHVQNQV as the variant, how does the protein stability index read?
The protein stability index was 2.99.

With FLRGPSGPRWGPRNDKIKHVQNQV as the variant, how does the protein stability index read?
Its protein stability index is 2.09.

For FLRGPSGPREGPRNDKIKHVQNQV, which protein stability index is on record?
The protein stability index was 3.29.

Which protein stability index does the source give for FLRGPSGPRDGPRNDKIKHVQNQV here?
Its protein stability index is 3.15.

For FLRGPSGPRQGPRNDKIKHVQNQV, which protein stability index is on record?
Its protein stability index is 3.14.

Which protein stability index does the source give for FLRGPSGPRKGPRNDKIKHVQNQV here?
Its protein stability index is 2.57.

With FLRGPSGPRGGPRNDKIKHVQNQV as the variant, how does the protein stability index read?
Its protein stability index is 2.89.

For FLRGPSGPRLGPRNDKIKHVQNQV, which protein stability index is on record?
Its protein stability index is 3.21.

For FLRGPSGPRAGPRNDKIKHVQNQV, which protein stability index is on record?
Its protein stability index is 2.72.

Which protein stability index does the source give for FLRGPSGPRTGPRNDKIKHVQNQV here?
Its protein stability index is 3.36.

For FLRGPSGPRPGPRNDKIKHVQNQV, which protein stability index is on record?
The protein stability index was 3.02.

With FLRGPSGPRRGPRNDKIKHVQNQV as the variant, how does the protein stability index read?
The protein stability index was 3.15.

With FLRGPSGPRYGPRNDKIKHVQNQV as the variant, how does the protein stability index read?
Its protein stability index is 2.27.

With FLRGPSGPRNGPRNDKIKHVQNQV as the variant, how does the protein stability index read?
Its protein stability index is 2.95.

For FLRGPSGPRVGPRNDKIKHVQNQV, which protein stability index is on record?
Its protein stability index is 2.67.

For FLHGPSGPRFGPRNDKIKHVQNQV, which protein stability index is on record?
The protein stability index was 3.17.

Which protein stability index does the source give for FLPGPSGPRFGPRNDKIKHVQNQV here?
The protein stability index was 2.58.

With FLAGPSGPRFGPRNDKIKHVQNQV as the variant, how does the protein stability index read?
Its protein stability index is 2.54.

With FLDGPSGPRFGPRNDKIKHVQNQV as the variant, how does the protein stability index read?
The protein stability index was 3.29.

With FLFGPSGPRFGPRNDKIKHVQNQV as the variant, how does the protein stability index read?
The protein stability index was 1.96.

Which protein stability index does the source give for FLVGPSGPRFGPRNDKIKHVQNQV here?
The protein stability index was 2.08.

With FLCGPSGPRFGPRNDKIKHVQNQV as the variant, how does the protein stability index read?
The protein stability index was 2.77.

For FLTGPSGPRFGPRNDKIKHVQNQV, which protein stability index is on record?
Its protein stability index is 3.25.

Which protein stability index does the source give for FLYGPSGPRFGPRNDKIKHVQNQV here?
The protein stability index was 1.99.

With FLNGPSGPRFGPRNDKIKHVQNQV as the variant, how does the protein stability index read?
The protein stability index was 2.93.

For FLMGPSGPRFGPRNDKIKHVQNQV, which protein stability index is on record?
Its protein stability index is 2.04.

For FLSGPSGPRFGPRNDKIKHVQNQV, which protein stability index is on record?
The protein stability index was 3.3.

With FLIGPSGPRFGPRNDKIKHVQNQV as the variant, how does the protein stability index read?
The protein stability index was 2.24.

Which protein stability index does the source give for FLWGPSGPRFGPRNDKIKHVQNQV here?
The protein stability index was 2.02.

Which protein stability index does the source give for FLQGPSGPRFGPRNDKIKHVQNQV here?
Its protein stability index is 2.6.

With FLGGPSGPRFGPRNDKIKHVQNQV as the variant, how does the protein stability index read?
Its protein stability index is 2.74.

For FLLGPSGPRFGPRNDKIKHVQNQV, which protein stability index is on record?
Its protein stability index is 2.42.

With FLEGPSGPRFGPRNDKIKHVQNQV as the variant, how does the protein stability index read?
Its protein stability index is 3.56.

With FLKGPSGPRFGPRNDKIKHVQNQV as the variant, how does the protein stability index read?
The protein stability index was 3.04.
